Test results reported in patent US20170355774A1.

Assays:
[1] = target: human GITR (amino acids M1-V241, NCBI Accession #NP_004186.1) expressed on cells (human) (UniProt Q9Y5U5); assay: cell-based or functional assay
[2] = target: mfGITR.mmh (Macaca fasicularis); assay: SPR 37C, mAb capture
hGITR.hFc (human) = assay: SPR 37C, mAb capture
hGITR.mmh (human) = assay: SPR 37C, mAb capture
hGITR.mmh (human), sequence (chain, as listed by the source limits assumed): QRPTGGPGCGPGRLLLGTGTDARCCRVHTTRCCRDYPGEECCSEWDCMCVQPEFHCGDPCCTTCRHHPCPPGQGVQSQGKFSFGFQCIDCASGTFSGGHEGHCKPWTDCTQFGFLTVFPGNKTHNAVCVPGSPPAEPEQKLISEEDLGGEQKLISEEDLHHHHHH

hGITR.hFc (human), sequence (chain, as listed by the source limits assumed): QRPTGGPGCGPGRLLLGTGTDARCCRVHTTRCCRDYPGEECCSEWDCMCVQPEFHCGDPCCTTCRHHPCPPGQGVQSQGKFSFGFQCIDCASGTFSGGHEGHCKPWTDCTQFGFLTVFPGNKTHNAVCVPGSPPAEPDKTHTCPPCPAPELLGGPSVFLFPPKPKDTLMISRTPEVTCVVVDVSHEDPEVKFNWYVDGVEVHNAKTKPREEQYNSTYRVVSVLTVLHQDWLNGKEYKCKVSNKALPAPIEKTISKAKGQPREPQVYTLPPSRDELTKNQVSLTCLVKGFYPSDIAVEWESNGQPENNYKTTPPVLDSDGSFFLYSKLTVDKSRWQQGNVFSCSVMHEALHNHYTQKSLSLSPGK
mfGITR.mmh (Macaca fasicularis), sequence (chain, as listed by the source limits assumed): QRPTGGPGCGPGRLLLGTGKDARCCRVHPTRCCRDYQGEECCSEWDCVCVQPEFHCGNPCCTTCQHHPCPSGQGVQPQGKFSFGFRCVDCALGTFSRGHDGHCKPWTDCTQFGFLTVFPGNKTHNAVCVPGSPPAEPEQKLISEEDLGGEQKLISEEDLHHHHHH
human GITR (amino acids M1-V241, NCBI Accession #NP_004186.1) expressed on cells (human), sequence (Q9Y5U5 26-241): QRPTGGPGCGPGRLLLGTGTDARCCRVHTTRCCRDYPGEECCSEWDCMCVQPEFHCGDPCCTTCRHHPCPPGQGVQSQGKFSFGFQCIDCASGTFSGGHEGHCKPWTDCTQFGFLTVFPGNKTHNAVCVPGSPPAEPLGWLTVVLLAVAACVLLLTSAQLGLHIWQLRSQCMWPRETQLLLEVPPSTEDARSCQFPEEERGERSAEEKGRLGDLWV

B1: Anti-GITR Control Ab I-mIgG1 (antibody, from another filing, V domains shown)
VH: QVTLKESGPGILKPSQTLSLTCSFSGFSLSTSGMGVGWIRQPSGKGLEWLAHIWWDDDKYYNPSLKSQLTISKDTSRNQVFLKITSVDTADAATYYCARTRRYFPFAYWGQGTLVTVSS
VL: DIVMTQSQKFMSTSVGDRVSVTCKASQNVGTNVAWYQQKPGQSPKALIYSASYRYSGVPDRFTGSGSGTDFTLTINNVHSEDLAEYFCQQYNTDPLTFGAGTKLEIK
With B1 the % Activation, NF-kB-Luc, non-anchored [1] was 25%, the % Blocking, NF-kB-Luc, FcgR anchored [1] was 60% and the % Blocking, NF-kB-Luc, non-anchored [1] was 54%. For the same binder, the EC50, T-cell proliferation, FcgR anchored, donor 1 [1] was 37.2 nM, the EC50, T-cell proliferation, FcgR anchored, donor 3 [1] was 42.9 nM and the EC50, T-cell proliferation, FcgR anchored, donor 4 [1] was 3.5 nM. It also gave an EC50, T-cell proliferation, FcgR anchored, donor 5 [1] of 52.7 nM, an EC50, T-cell proliferation, FcgR anchored, mean [1] of 34.1 nM and an EC50, hGITR activation, NF-kB-Luc, FcgR anchored [1] of 0.1 nM. For the same binder, the EC50, hGITR activation, NF-kB-Luc, non-anchored [1] was 1.02 nM, the Fold Activation over basal signal, NF-kB-Luc, FcgR anchored [1] was 6 fold and the IC50, blocking of hGITRL stimulation, NF-kB-Luc, FcgR anchored [1] was 0.2 nM. It also gave an IC50, blocking of hGITRL stimulation, NF-kB-Luc, non-anchored [1] of 0.1 nM, a fold activation, T-cell proliferation, 22 nM, non-anchored, donor 1 [1] of 0.7 fold and a fold activation, T-cell proliferation, 22 nM, non-anchored, donor 2 [1] of 0.8 fold. It also gave a fold activation, T-cell proliferation, 22 nM, non-anchored, donor 3 [1] of 1 fold, a fold activation, T-cell proliferation, 22 nM, non-anchored, donor 4 [1] of 1 fold and a fold activation, T-cell proliferation, 22 nM, non-anchored, mean [1] of 0.9 fold. It also gave a fold activation, T-cell proliferation, 33 nM, FcgR anchored, donor 1 [1] of 2.8 fold, a fold activation, T-cell proliferation, 33 nM, FcgR anchored, donor 2 [1] of 2.8 fold and a fold activation, T-cell proliferation, 33 nM, FcgR anchored, donor 3 [1] of 1.4 fold. For the same binder, the fold activation, T-cell proliferation, 33 nM, FcgR anchored, donor 4 [1] was 1.1 fold, the fold activation, T-cell proliferation, 33 nM, FcgR anchored, donor 5 [1] was 1.7 fold and the fold activation, T-cell proliferation, 33 nM, FcgR anchored, mean [1] was 2 fold. It also gave a fold activation, T-cell proliferation, plate-bound Ab 10.6 nM, donor 1 [1] of 6 fold, a fold activation, T-cell proliferation, plate-bound Ab 10.6 nM, donor 2 [1] of 23 fold and a fold activation, T-cell proliferation, plate-bound Ab 10.6 nM, donor 3 [1] of 23 fold. For the same binder, the fold activation, T-cell proliferation, plate-bound Ab 10.6 nM, donor 4 [1] was 40 fold, the fold activation, T-cell proliferation, plate-bound Ab 10.6 nM, donor 5 [1] was 23 fold and the fold activation, T-cell proliferation, plate-bound Ab 10.6 nM, donor 6 [1] was 66 fold. The fold activation, T-cell proliferation, plate-bound Ab 10.6 nM, donor 7 [1] was 25 fold, the fold activation, T-cell proliferation, plate-bound Ab 10.6 nM, donor 8 [1] was 11 fold and the fold activation, T-cell proliferation, plate-bound Ab 10.6 nM, mean [1] was 27 fold. For the same binder, the Kd [2] was 213 nM, the koff [2] was 0.0464 s⁻¹ and the kon [2] was 218000 M⁻¹ s⁻¹. The t½ [2] was 12 s, the Kd (hGITR.hFc (human)) was 20.4 nM and the koff (hGITR.hFc (human)) was 0.0078 s⁻¹. For the same binder, the kon (hGITR.hFc (human)) was 382000 M⁻¹ s⁻¹, the t½ (hGITR.hFc (human)) was 90 s and the Kd (hGITR.mmh (human)) was 122 nM. For the same binder, the koff (hGITR.mmh (human)) was 0.0263 s⁻¹, the kon (hGITR.mmh (human)) was 216000 M⁻¹ s⁻¹ and the t½ (hGITR.mmh (human)) was 24 s.

B2: Anti-GITR Control Ab I-mIgG2a (antibody, from another filing, V domains shown)
VH: QVTLKESGPGILKPSQTLSLTCSFSGFSLSTSGMGVGWIRQPSGKGLEWLAHIWWDDDKYYNPSLKSQLTISKDTSRNQVFLKITSVDTADAATYYCARTRRYFPFAYWGQGTLVTVSS
VL: DIVMTQSQKFMSTSVGDRVSVTCKASQNVGTNVAWYQQKPGQSPKALIYSASYRYSGVPDRFTGSGSGTDFTLTINNVHSEDLAEYFCQQYNTDPLTFGAGTKLEIK
B2 showed a % Blocking, NF-kB-Luc, FcgR anchored [1] of 74%, an EC50, hGITR activation, NF-kB-Luc, FcgR anchored [1] of 0.2 nM and a Fold Activation over basal signal, NF-kB-Luc, FcgR anchored [1] of 5 fold. For the same binder, the IC50, blocking of hGITRL stimulation, NF-kB-Luc, FcgR anchored [1] was 0.01 nM, the fold activation, T-cell proliferation, 33 nM, FcgR anchored, donor 1 [1] was 1.1 fold and the fold activation, T-cell proliferation, 33 nM, FcgR anchored, donor 2 [1] was 0.1 fold. It also gave a fold activation, T-cell proliferation, 33 nM, FcgR anchored, donor 3 [1] of 1 fold, a fold activation, T-cell proliferation, 33 nM, FcgR anchored, donor 4 [1] of 1 fold and a fold activation, T-cell proliferation, 33 nM, FcgR anchored, donor 5 [1] of 1.2 fold. The fold activation, T-cell proliferation, 33 nM, FcgR anchored, mean [1] was 1.3 fold.
